Measured values as given in patent publication US20050287542.
Residue numbers refer to the chain shown, from its start. pKd: −log10 of the molar value.

Columns and labels:
[1] = system: p007 (Artificial Sequence); conditions: scale: fold average specificity ratio for hsCRE over any site in CT DNA
G56 (GCN4 bZIP element) = G56 (GCN4 bZIP element) (UniProt P03069); test: EMSA
[2] = system: T1, PPBR4SR (PPBR4) (Artificial Sequence); test: EMSA
T1 sequence: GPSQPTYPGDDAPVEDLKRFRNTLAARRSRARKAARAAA

[3] = molecular target: G27 (isolated GCN4 basic region) (UniProt P03069); test: EMSA
[4] = system: T2, PPBR2SR (Artificial Sequence); test: EMSA; conditions: physiological ionic strength, on ice
T2 sequence: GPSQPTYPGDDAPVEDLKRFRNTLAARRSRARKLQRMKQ

[5] = system: T3, PPBR4-deltaSR (Artificial Sequence); test: EMSA; conditions: hydrophobic core disrupted; scale: kcal/mol less stable than PPBR4SR-hsCRE24
T3 sequence: T1 sequence with A31L

[6] = system: p007 (Artificial Sequence); test: EMSA
[7] = system: p011 (Artificial Sequence); test: EMSA; conditions: 4 C
[8] = system: p012 (Artificial Sequence); test: EMSA; conditions: 4 C
[9] = system: p016 (Artificial Sequence); test: EMSA; conditions: 4 C
[10] = system: PPBR4 on phage (Artificial Sequence); test: pulldown; conditions: phage panning, PBS, 0.1% NP-40, 2.5 ug/ml poly-dIdC, 4 C
[11] = system: aPP (avian pancreatic polypeptide) (avian); test: pulldown; conditions: phage panning, negative control; computed from the stated 10-fold

For calf thymus DNA, the binding signal [1] was 4170.
For hsCEBP24, the binding signal (G56 (GCN4 bZIP element); ddG -2.9 kcal/mol, scale: fold specificity ratio for hsCRE24 over hsCEBP24) was 180 and the binding signal ([2]; ddG -4.4 kcal/mol, scale: fold specificity ratio for hsCRE24 over hsCEBP24) was 2600.
Substance hsCRE24 has a pKd ([3]; 4 C) of 6.39, a binding signal ([3]; lacks polyproline helix and turn, scale: kcal/mol less stable than PPBR4SR-hsCRE24) of 3.1 and a binding signal (fold preference over hsCEBP24) (G56 (GCN4 bZIP element)) of 180. The pKd [4] was 8.30, the binding signal [5] was 3.2 and the pKd ([2]; PPBR4, 4 C) was 8.72. It also gave a pKd ([2]; physiological ionic strength, on ice) of 8.82, a pKd ([6]; 4 C, PBS-type buffer with 1 mM EDTA) of 10.64 and a pKd ([6]; 25 C) of 8.80. It also gave a pKd [7] of 8.82, a pKd [8] of 8.60 and a pKd [9] of 9.52.
For hsCRE24 on beads, the binding signal (fold retention over aPP phage) [10] was 10 and the binding signal (fold retention relative to PPBR4 phage) [11] was 0.1.
